# Test results as given in patent publication US20190218479A1, “Stabilized Liquid Peroxide Compositions” (Novozymes A/S, priority 2016, published 2019).
# B1: Subtilisin1: subtilisin with amino acid sequence SEQ ID NO: 2, having a M216 substitution according to the invention (protein)
# chain: AQSVPWGISRVQAPAAHNRGLTGSGVKVAVLDTGISTHPDLNIRGGASFVPGEPSTQDGNGHGTHVAGTIAALNNSIGVLGVAPSAELYAVKVLGASGSGSVSSIAQGLEWAGNNGMHVANLSLGSPSPSATLEQAVNSATSRGVLVVAASGNSGAGSISYPARYANAMAVGATDQNNNRASFSQYGAGLDIVAPGVNVQSTYPGSTYASLNGTSSATPHVAGAAALVKQKNPSWSNVQIRNHLKNTATSLGSTNLYGSGLVNAEAATR
# modifications: Variant of SEQ ID NO 1
# Tests used:
# Format in all cases: physicochemical
# [1] = Stability of Subtilisin1 and Subtilisin2 in the liquid peroxide composition of Table 1 (residual protease activity, N,N-dimethylcasein/TNBS); conditions: for % Subtilisin residual activity after 4 weeks: liquid peroxide composition in Table 1 (0.8% H2O2, pH 7.0)
# Experimental: (§1) The compositions were prepared as shown in the examples and samples stored in closed vials for storage. Residual activity was measured by comparing activity in a stored sample at the time of taken out of incubation without freezing and comparing activity to a freshly prepared sample without peroxide and dividing activity in the stored sample with activity in the fresh sample.
# (§2) Activity analysis is performed by analysing protease activity by hydrolysis of N,N-dimethylcasein to produce a carboxylic acid and a primary amine compounds. The primary amines that are formed react, under alkaline conditions, with tri-nitrobenzenesulfonic acid (TNBS) to form a colored complex. The amount of colored complex that forms over the fixed reaction period at a constant temperature (530 seconds at 40° C.; complex absorbance is measured at 405 nm) is related to the amount of active protease present in the sample. The amount of colored product complex produced is compared to a standard curve based on known protease concentrations to calculate the amount of active protease in the detergent sample. The amount of protease activity at a specific time point is compared to the t=0 activity level to calculate the % active protease remaining.
# Subtilisin1 [2] = target: T1, Subtilisin1 (Lederbergia lenta, UniProt P29600, M216S); assay: Residual activity of Subtilisin1 after storage in peroxide model detergents with or without subtilisin stabilizers (N,N-dimethylcasein/TNBS)
# Text: Chemicals used as buffers and substrates were commercial products of at least reagent grade. Subtilisin1 has the amino acid sequence as shown in SEQ ID NO: 2, which is a subtilisin having a M216 substitution according to the invention. Subtilisin2 has the amino acid sequence as shown in SEQ ID NO: 1, which is a reference subtilisin not covered by the invention. The stock solution of each subtilisin contains 4.4% w/w of active enzyme protein. Stabilizer1: Cbz-Gly-Ala-Tyr-H (C-terminal aldehyde), wherein Cbz is benzyloxycarbonyl; which is a subtilisin stabilizer according to the invention. When used in the examples below, Stabilizer1 was added to the subtilisin stock solution at a concentration of 0.28% w/w. Stabilizer2: Cbz-Gly-Ala-NHCH(CH2C6H4pOH)CH(OH)(OSO3)Na (hydrosulfite adduct of a C-terminal aldehyde) wherein Cbz is benzyloxycarbonyl; which is a subtilisin stabilizer according to the invention. When used in the examples below, Stabilizer2 was added to the subtilisin stock solution at a concentration of 0.35% w/w. Stabilizer3: MeOCO-Val-Ala-Leu-H (C-terminal aldehyde). When used in the examples below, Stabilizer3 was added to the subtilisin stock solution at a concentration of 0.28% w/w. Stabilizer4: 4-formyl-phenyl-boronic acid (4-FPBA); which is a reference protease stabilizer not covered by the invention. When used in the examples below, Stabilizer4 was added to the subtilisin stock solution at a concentration of 3.4% w/w.
# as §1, §2
# This study examined Subtilisin1 stability in the presence of hydrogen peroxide, with and without subtilisin stabilizers (Stabilizer4 and Stabilizer2) in two different model detergents at pH 7 and 9.
# [3] = Residual hydrogen peroxide after storage, permanganate titration
# Experimental: Residual hydrogen peroxide (H2O2) was measured by permanganate titration (reduction of potassium permanganate by hydrogen peroxide in sulfuric acid).
# Subtilisin1 [4] = target: T1, Subtilisin1; assay: Residual activity of Subtilisin1 after storage in peroxide model detergents with or without subtilisin stabilizers (N,N-dimethylcasein/TNBS); remark: listed apart in the source
molecule,measurement,setting,value
B1,% Subtilisin residual activity after 4 weeks,[1]; 22° C.,81%
same,% Subtilisin residual activity after 4 weeks,[1]; 30° C.,61%
same,% Subtilisin residual activity after 4 weeks,[1]; 37° C.,46%
same,"stability in the liquid peroxide composition, compared with Subtilisin2","[1]; liquid peroxide composition in Table 1, summary of Table 2",much better
same,Residual activity of Subtilisin1 after storage,"Subtilisin1 [2]; liquid nonionic laundry detergent in Table 7 (1.0% H2O2), 22° C., pH 7",63%
same,Residual activity of Subtilisin1 after storage,"Subtilisin1 [2]; liquid nonionic laundry detergent in Table 7 (1.0% H2O2), 22° C., pH 9",75%
same,Residual activity of Subtilisin1 after storage,"Subtilisin1 [2]; liquid nonionic laundry detergent in Table 7 (1.0% H2O2), 30° C., pH 7",47%
same,Residual activity of Subtilisin1 after storage,"Subtilisin1 [2]; liquid nonionic laundry detergent in Table 7 (1.0% H2O2), 30° C., pH 9",68%
same,Residual activity of Subtilisin1 after storage,"Subtilisin1 [2]; liquid nonionic laundry detergent in Table 7 (1.0% H2O2), 37° C., pH 7",30%
same,Residual activity of Subtilisin1 after storage,"Subtilisin1 [2]; liquid nonionic laundry detergent in Table 7 (1.0% H2O2), 37° C., pH 9",45%
same,Residual activity of Subtilisin1 after storage,"Subtilisin1 [2]; liquid nonionic pretreatment detergent in Table 4 (1.0% H2O2), 22° C., pH 7",85%
same,Residual activity of Subtilisin1 after storage,"Subtilisin1 [2]; liquid nonionic pretreatment detergent in Table 4 (1.0% H2O2), 22° C., pH 9",40%
same,Residual activity of Subtilisin1 after storage,"Subtilisin1 [2]; liquid nonionic pretreatment detergent in Table 4 (1.0% H2O2), 30° C., pH 7",65%
same,Residual activity of Subtilisin1 after storage,"Subtilisin1 [2]; liquid nonionic pretreatment detergent in Table 4 (1.0% H2O2), 30° C., pH 9",19%
same,Residual activity of Subtilisin1 after storage,"Subtilisin1 [2]; liquid nonionic pretreatment detergent in Table 4 (1.0% H2O2), 37° C., pH 7",44%
same,Residual activity of Subtilisin1 after storage,"Subtilisin1 [2]; liquid nonionic pretreatment detergent in Table 4 (1.0% H2O2), 37° C., pH 9",12%
same,Residual activity of Subtilisin1 after storage,"Subtilisin1 [2]; liquid nonionic/anionic laundry detergent in Table 13 (1.0% H2O2), 22° C., pH 7",84%
same,Residual activity of Subtilisin1 after storage,"Subtilisin1 [2]; liquid nonionic/anionic laundry detergent in Table 13 (1.0% H2O2), 22° C., pH 9",63%
same,Residual activity of Subtilisin1 after storage,"Subtilisin1 [2]; liquid nonionic/anionic laundry detergent in Table 13 (1.0% H2O2), 30° C., pH 7",62%
same,Residual activity of Subtilisin1 after storage,"Subtilisin1 [2]; liquid nonionic/anionic laundry detergent in Table 13 (1.0% H2O2), 30° C., pH 9",34%
same,Residual activity of Subtilisin1 after storage,"Subtilisin1 [2]; liquid nonionic/anionic laundry detergent in Table 13 (1.0% H2O2), 37° C., pH 7",40%
same,Residual activity of Subtilisin1 after storage,"Subtilisin1 [2]; liquid nonionic/anionic laundry detergent in Table 13 (1.0% H2O2), 37° C., pH 9",23%
same,Residual activity of Subtilisin1 after storage,"Subtilisin1 [2]; liquid nonionic/anionic pretreatment detergent in Table 10 (1.0% H2O2), 22° C., pH 7",79%
same,Residual activity of Subtilisin1 after storage,"Subtilisin1 [2]; liquid nonionic/anionic pretreatment detergent in Table 10 (1.0% H2O2), 22° C., pH 9",57%
same,Residual activity of Subtilisin1 after storage,"Subtilisin1 [2]; liquid nonionic/anionic pretreatment detergent in Table 10 (1.0% H2O2), 30° C., pH 7",66%
same,Residual activity of Subtilisin1 after storage,"Subtilisin1 [2]; liquid nonionic/anionic pretreatment detergent in Table 10 (1.0% H2O2), 30° C., pH 9",47%
same,Residual activity of Subtilisin1 after storage,"Subtilisin1 [2]; liquid nonionic/anionic pretreatment detergent in Table 10 (1.0% H2O2), 37° C., pH 7",52%
same,Residual activity of Subtilisin1 after storage,"Subtilisin1 [2]; liquid nonionic/anionic pretreatment detergent in Table 10 (1.0% H2O2), 37° C., pH 9",29%
same,Residual activity of Subtilisin1 after storage,"Subtilisin1 [2]; liquid nonionic/anionic pretreatment detergent in Table 16 (2.0% H2O2), 22° C., pH 7",85%
same,Residual activity of Subtilisin1 after storage,"Subtilisin1 [2]; liquid nonionic/anionic pretreatment detergent in Table 16 (2.0% H2O2), 22° C., pH 9",30%
same,Residual activity of Subtilisin1 after storage,"Subtilisin1 [2]; liquid nonionic/anionic pretreatment detergent in Table 16 (2.0% H2O2), 30° C., pH 7",69%
same,Residual activity of Subtilisin1 after storage,"Subtilisin1 [2]; liquid nonionic/anionic pretreatment detergent in Table 16 (2.0% H2O2), 30° C., pH 9",12%
same,Residual activity of Subtilisin1 after storage,"Subtilisin1 [2]; liquid nonionic/anionic pretreatment detergent in Table 16 (2.0% H2O2), 37° C., pH 7",50%
same,Residual activity of Subtilisin1 after storage,"Subtilisin1 [2]; liquid nonionic/anionic pretreatment detergent in Table 16 (2.0% H2O2), 37° C., pH 9",5%
same,Residual H2O2 after 4 weeks,"[3]; liquid peroxide composition in Table 1, 22° C.",99.0%
same,Residual H2O2 after 4 weeks,"[3]; liquid peroxide composition in Table 1, 30° C.",98.7%
same,Residual H2O2 after 4 weeks,"[3]; liquid peroxide composition in Table 1, 37° C.",97.8%
same,Residual H2O2 (after storage),"[3]; nonionic laundry detergent in Table 7, relative to initially added H2O2 = 1%, 22° C., pH 7",95%
same,Residual H2O2 (after storage),"[3]; nonionic laundry detergent in Table 7, relative to initially added H2O2 = 1%, 22° C., pH 9",95%
same,Residual H2O2 (after storage),"[3]; nonionic laundry detergent in Table 7, relative to initially added H2O2 = 1%, 30° C., pH 7",94%
same,Residual H2O2 (after storage),"[3]; nonionic laundry detergent in Table 7, relative to initially added H2O2 = 1%, 30° C., pH 9",94%
same,Residual H2O2 (after storage),"[3]; nonionic laundry detergent in Table 7, relative to initially added H2O2 = 1%, 37° C., pH 7",92%
same,Residual H2O2 (after storage),"[3]; nonionic laundry detergent in Table 7, relative to initially added H2O2 = 1%, 37° C., pH 9",91%
same,Residual H2O2 (after storage),"[3]; nonionic pretreatment detergent in Table 4, relative to initially added H2O2 = 1%, 22° C., pH 7",≥100%
same,Residual H2O2 (after storage),"[3]; nonionic pretreatment detergent in Table 4, relative to initially added H2O2 = 1%, 22° C., pH 9",93%
same,Residual H2O2 (after storage),"[3]; nonionic pretreatment detergent in Table 4, relative to initially added H2O2 = 1%, 30° C., pH 7",≥100%
same,Residual H2O2 (after storage),"[3]; nonionic pretreatment detergent in Table 4, relative to initially added H2O2 = 1%, 30° C., pH 9",91%
same,Residual H2O2 (after storage),"[3]; nonionic pretreatment detergent in Table 4, relative to initially added H2O2 = 1%, 37° C., pH 7",≥100%
same,Residual H2O2 (after storage),"[3]; nonionic pretreatment detergent in Table 4, relative to initially added H2O2 = 1%, 37° C., pH 9",90%
same,Residual H2O2 (after storage),"[3]; nonionic/anionic laundry detergent in Table 13, relative to initially added H2O2 = 1%, 22° C., pH 7",101%
same,Residual H2O2 (after storage),"[3]; nonionic/anionic laundry detergent in Table 13, relative to initially added H2O2 = 1%, 22° C., pH 9",95%
same,Residual H2O2 (after storage),"[3]; nonionic/anionic laundry detergent in Table 13, relative to initially added H2O2 = 1%, 30° C., pH 7",99%
same,Residual H2O2 (after storage),"[3]; nonionic/anionic laundry detergent in Table 13, relative to initially added H2O2 = 1%, 30° C., pH 9",92%
same,Residual H2O2 (after storage),"[3]; nonionic/anionic laundry detergent in Table 13, relative to initially added H2O2 = 1%, 37° C., pH 7",101%
same,Residual H2O2 (after storage),"[3]; nonionic/anionic laundry detergent in Table 13, relative to initially added H2O2 = 1%, 37° C., pH 9",97%
same,Residual H2O2 (after storage),"[3]; nonionic/anionic pretreatment detergent in Table 10, relative to initially added H2O2 = 1%, 22° C., pH 7",88%
same,Residual H2O2 (after storage),"[3]; nonionic/anionic pretreatment detergent in Table 10, relative to initially added H2O2 = 1%, 30° C., pH 7",86%
same,Residual H2O2 (after storage),"[3]; nonionic/anionic pretreatment detergent in Table 10, relative to initially added H2O2 = 1%, 37° C., pH 7",100%
same,Residual H2O2 (after storage),"[3]; nonionic/anionic pretreatment detergent in Table 10, relative to initially added H2O2 = 1%, 37° C., pH 9",95%
same,Residual H2O2 (after storage),"[3]; nonionic/anionic pretreatment detergent in Table 16, relative to initially added H2O2 = 2%, 22° C., pH 7",87%
same,Residual H2O2 (after storage),"[3]; nonionic/anionic pretreatment detergent in Table 16, relative to initially added H2O2 = 2%, 30° C., pH 7",84%
same,Residual H2O2 (after storage),"[3]; nonionic/anionic pretreatment detergent in Table 16, relative to initially added H2O2 = 2%, 37° C., pH 7",90%
same,Residual H2O2 (after storage),"[3]; nonionic/anionic pretreatment detergent in Table 16, relative to initially added H2O2 = 2%, 37° C., pH 9",92%
same,Residual activity after storage for 2 weeks at 30° C.,"Subtilisin1 [4]; Subtilisin1 in “Mix Laundry” (Table 19, pH 7.5) no H2O2, no sodium salicylate, no polyDADMAC",73%
same,Residual activity after storage for 2 weeks at 30° C.,"Subtilisin1 [4]; Subtilisin1 in “Mix Laundry” (Table 19, pH 7.5) with 1% H2O2, with sodium salicylate, with polyDADMAC",42%
same,Residual activity after storage for 2 weeks at 37° C.,"Subtilisin1 [4]; Subtilisin1 in “NI pretreat” (Table 19, pH 7.0) with 1% H2O2, with sodium salicylate, with polyDADMAC",38%
same,Residual activity after storage for 2 weeks at 37° C.,"Subtilisin1 [4]; Subtilisin1 in “NI pretreat” (Table 19, pH 7.0) without H2O2, no sodium salicylate, no polyDADMAC",82%
